Assay results reported in patent US20250206837A1 (ELIXIRON IMMUNOTHERAPEUTICS HONG KONG, published 2025).
Residue numbers refer to the chain shown, from its start. In names and notes the source's numbering stands. Several values for one entry are separate records, joined by “and”; a condition that tells them apart may be missing. Equal entries are not always repeated. Blank lines part the entries; values can stand above or below the binder they belong to.

Tests used:
[1] = molecular target: T1, full-length human CD36-Flag overexpressed on stable F293 cells (human, UniProt P16671 2-472); assay: cell-based or functional assay
[2] = molecular target: T2, mouse CD36-His overexpressed on stable F293 cells (mouse, UniProt Q08857 1-472); assay: cell-based or functional assay
[3] = molecular target: T3, Recombinant His-tagged human CD36.ECD protein (Sino Biological) (human, UniProt P16671 30-439); assay: ELISA, coated human CD36.ECD (FIG. 1C)
T3 construct: Bought protein; also called hCD36.ECD; hCD36; not shown: His tag
Experimental: (§1) ELISA materials and methods: Recombinant His-tagged human CD36.ECD protein or His-tagged mouse CD36.ECD protein (both from Sino Biological) was immobilized on 96 well microtiter plate at a concentration of 1 μg/mL in Coating Solution (SeraCare) overnight at 4° C. The wells were washed with wash solution (0.05% Tween20 in PBS) and blocked with 1% BSA in PBS. Serial dilutions of anti-CD36 antibodies were added to wells. After incubation at 37° C. for 1 h, the wells were washed with wash solution. Peroxidase-conjugated Goat anti-human kappa Light chain antibody (Sigma) was applied to each well at 37° C. for 1 h incubation. After washing, the wells were developed with TMB substrate for 5-10 min at room temperature and then stopped with 1 N HCl. Thereafter absorbance was measured at 450 nm and 650 nm. EC50 values were calculated through GraphPad Prism7.
(§2) ELISA data plots showing binding of anti-CD36 antibodies to recombinant human CD36.ECD or mouse CD36.ECD coated on ELISA plates are depicted in FIG. 1C and 1D, respectively.

[4] = molecular target: T4, Recombinant His-tagged mouse CD36.ECD protein (Sino Biological) (mouse, UniProt Q08857 30-439); assay: ELISA, coated mouse CD36.ECD (FIG. 1D)
T4 construct: Bought protein; also called mCD36.ECD; mCD36; not shown: His tag
Experimental: as §1, §2

[5] = molecular target: T3, Recombinant His-tagged human CD36.ECD …; assay: ELISA, coated human CD36.ECD (FIG. 2A)
Experimental: as §1
(§3) The competitor anti-CD36 antibody ONA, which is derived from clone “ONA-0-v1” as disclosed in WO2021176424A1 in hIgG4-S228P-FALA format.

[6] = molecular target: T3, Recombinant His-tagged human CD36.ECD …; assay: ELISA, coated His-tagged human CD36.ECD
Experimental: as §1
(§4) Results: ELISA data plots showing binding to either human CD36.ECD or mouse CD36.ECD are depicted in FIG. 1A and FIG. 1B, respectively, for the full-length IgG anti-CD36 antibody 12P109, and additional positive clones, 12P102, 12P103, 12P104, 12P105, 12P106, 12P107, 12P110 and 12P212.

[7] = molecular target: T4, Recombinant His-tagged mouse CD36.ECD …; assay: ELISA, coated His-tagged mouse CD36.ECD
Experimental: as §1, §4

[8] = molecular target: T3, Recombinant His-tagged human CD36.ECD …; assay: BLI (Octet), antibody on AHC sensor, His-tagged hCD36.ECD in solution, 1:1 fit
Experimental: BLI assay materials and method: Kinetic rate constants, ka and kd, for binding of the anti-CD36 antibodies to human CD36 were measured by Bio-Layer Interferometry (BLI) (ForteBio Octet RED96). […] Rate constants were calculated by curve fitting analyses (1:1 Langmuir model) of binding response with a 2.5-minute association and 5-minute dissociation interaction time.

[9] = molecular target: T3, Recombinant His-tagged human CD36.ECD …; assay: hCD36 ELISA, plate coated with human CD36.ECD, antibody titrated, OD (450-650) nm
Experimental: as §1, §3

[10] = molecular target: T3, Recombinant His-tagged human CD36.ECD …; assay: ELISA, coated human CD36.ECD (FIG. 2F)
Experimental: as §1, §3

[11] = molecular target: T1, full-length human CD36-Flag …; assay: flow cytometry, F293 cells overexpressing human CD36
From the text: (§5) After washing with FACS buffer (2% FBS in PBS), the cells were stained with anti-human IgG-Alexa Fluor 647 and analyzed by Attune NxT Flow Cytometer (Thermo Scientific).

[12] = molecular target: T2, mouse CD36-His overexpressed on stable …; assay: flow cytometry, F293 cells overexpressing mouse CD36
From the text: as §5

[13] = molecular target: T5, rhesus CD36-His overexpressed on stable F293 cells (rhesus, UniProt P16671 2-472 (human entry)); assay: flow cytometry, F293 cells overexpressing rhesus CD36
T5 construct: Gene segment from Sino Biological; also called F293/rhesusCD36; not shown: His tag
From the text: as §5

[14] = molecular target: T3, Recombinant His-tagged human CD36.ECD …; assay: ELISA, coated human CD36.ECD (FIG. 2E)
Experimental: as §1, §3

T4 sequence (Q08857 30-439 limits assumed): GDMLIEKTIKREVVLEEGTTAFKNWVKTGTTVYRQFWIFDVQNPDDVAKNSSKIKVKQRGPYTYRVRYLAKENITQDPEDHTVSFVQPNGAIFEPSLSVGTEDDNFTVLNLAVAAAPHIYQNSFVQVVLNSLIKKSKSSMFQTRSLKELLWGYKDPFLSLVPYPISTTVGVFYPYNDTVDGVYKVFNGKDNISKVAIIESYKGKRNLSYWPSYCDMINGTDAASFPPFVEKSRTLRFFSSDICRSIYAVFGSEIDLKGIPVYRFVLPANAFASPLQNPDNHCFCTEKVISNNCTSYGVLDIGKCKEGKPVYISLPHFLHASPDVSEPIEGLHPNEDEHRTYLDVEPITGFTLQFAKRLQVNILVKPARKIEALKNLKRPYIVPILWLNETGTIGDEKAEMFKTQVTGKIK
T2 sequence (Q08857 whole entry, the tested form may be a part): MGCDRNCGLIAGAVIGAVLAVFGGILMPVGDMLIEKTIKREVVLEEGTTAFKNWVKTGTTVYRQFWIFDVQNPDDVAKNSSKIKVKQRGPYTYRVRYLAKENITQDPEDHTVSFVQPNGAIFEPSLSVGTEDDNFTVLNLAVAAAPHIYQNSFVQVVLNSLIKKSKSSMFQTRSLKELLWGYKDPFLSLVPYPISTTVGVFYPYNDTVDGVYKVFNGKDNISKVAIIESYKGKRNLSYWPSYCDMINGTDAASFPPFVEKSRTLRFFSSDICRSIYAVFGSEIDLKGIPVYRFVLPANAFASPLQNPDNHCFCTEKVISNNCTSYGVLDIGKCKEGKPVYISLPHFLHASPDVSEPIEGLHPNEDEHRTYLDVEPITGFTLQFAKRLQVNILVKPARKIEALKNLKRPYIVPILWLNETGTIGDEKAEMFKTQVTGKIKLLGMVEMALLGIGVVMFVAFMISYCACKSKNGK
T1 sequence (P16671 2-472): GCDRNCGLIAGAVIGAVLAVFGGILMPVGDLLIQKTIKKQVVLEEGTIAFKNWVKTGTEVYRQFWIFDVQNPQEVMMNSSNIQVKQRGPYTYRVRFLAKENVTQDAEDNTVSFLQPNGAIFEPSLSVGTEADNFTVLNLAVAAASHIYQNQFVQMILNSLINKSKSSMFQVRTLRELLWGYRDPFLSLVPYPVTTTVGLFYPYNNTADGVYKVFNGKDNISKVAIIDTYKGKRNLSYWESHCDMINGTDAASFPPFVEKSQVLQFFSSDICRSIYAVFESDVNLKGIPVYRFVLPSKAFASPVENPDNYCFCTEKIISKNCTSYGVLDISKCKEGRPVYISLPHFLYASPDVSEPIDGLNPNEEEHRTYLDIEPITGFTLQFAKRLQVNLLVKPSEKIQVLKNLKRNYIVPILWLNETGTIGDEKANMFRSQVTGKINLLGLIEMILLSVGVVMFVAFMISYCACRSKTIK
T3 sequence (P16671 30-439 limits assumed): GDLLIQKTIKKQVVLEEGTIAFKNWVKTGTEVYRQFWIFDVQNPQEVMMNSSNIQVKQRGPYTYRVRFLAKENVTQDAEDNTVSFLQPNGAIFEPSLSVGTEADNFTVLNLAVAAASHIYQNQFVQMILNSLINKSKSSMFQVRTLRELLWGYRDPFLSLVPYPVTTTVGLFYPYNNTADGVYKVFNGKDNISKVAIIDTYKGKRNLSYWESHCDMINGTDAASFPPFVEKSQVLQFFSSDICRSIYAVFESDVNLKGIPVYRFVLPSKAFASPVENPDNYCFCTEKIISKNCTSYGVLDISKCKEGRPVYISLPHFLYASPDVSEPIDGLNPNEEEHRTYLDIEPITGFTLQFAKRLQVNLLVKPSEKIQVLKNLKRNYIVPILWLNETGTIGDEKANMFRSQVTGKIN
T5 sequence (P16671 other isoform, or with tags, fused parts or gaps): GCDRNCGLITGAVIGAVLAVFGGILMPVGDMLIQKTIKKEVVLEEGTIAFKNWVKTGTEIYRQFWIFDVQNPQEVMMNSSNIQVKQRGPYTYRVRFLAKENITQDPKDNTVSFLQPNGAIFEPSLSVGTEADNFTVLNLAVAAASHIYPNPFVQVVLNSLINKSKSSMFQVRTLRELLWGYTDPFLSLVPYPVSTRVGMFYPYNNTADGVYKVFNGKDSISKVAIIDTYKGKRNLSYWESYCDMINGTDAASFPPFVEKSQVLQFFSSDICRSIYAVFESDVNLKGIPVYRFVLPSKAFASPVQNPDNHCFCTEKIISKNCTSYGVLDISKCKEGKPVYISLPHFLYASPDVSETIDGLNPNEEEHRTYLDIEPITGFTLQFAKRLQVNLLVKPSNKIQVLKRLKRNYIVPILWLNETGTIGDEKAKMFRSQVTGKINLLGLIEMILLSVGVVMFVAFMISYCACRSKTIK

oxLDL uptake IC50 (nM), F293/hCD36 [1]: 0.401 nM
oxLDL uptake IC50 (nM), F293/mCD36 [2]: 0.86 nM
EC50 [3]: 43200 pM
EC50 [4]: 9450 pM
EC50 [5]: 1530 pM
EC50 [6]: 213 pM
EC50 [7]: 137 pM
Kd [8]: 18500 pM
koff [8]: 0.00963 s⁻¹
kon [8]: 522000 M⁻¹ s⁻¹
B1: 12P109 (antibody, human IgG1, kappa, N297A, V domains shown)
VH: EVQLVESGGGLVQPGGSLRLSCAASGFTISSFGIHWVRQAPGKGLEWVAWIAPYGGYTYYADSVKGRFTISADTSKNTAYLQMNSLRAEDTAVYYCARSFFGYFDYWGQGTLVTVSS
VL: DIQMTQSPSSLSASVGDRVTITCRASQDVSNWVAWYQQKPGKAPKLLISTSTSLYSGVPSRFSGSGSGTDFTLTISSLQPEDFATYYCQQYYTLPFTFGQGTKVEIKR
notes: Full-length human IgG1-N297A, kappa; also called 12P109 (IgG1)

binding result [9]: no binding (tested: about 20 nM)
B2: 57T (antibody, V domains shown)
VH: B1 VH with Y57T
VL: B1 VL with T50Y, S51A, Y91H, Y92S, T93N, L94A, F96L
notes: the sheet prints only 57T

oxLDL uptake IC50 (nM), F293/hCD36 [1]: 0.419 nM
oxLDL uptake IC50 (nM), F293/mCD36 [2]: 0.796 nM
EC50 [5]: 49.2 pM
EC50 [10]: 206 pM
EC50 [11]: 0.11 µg/mL and 0.091 µg/mL
EC50 [12]: 0.331 µg/mL and 0.279 µg/mL
EC50 [13]: 0.419 µg/mL and 0.362 µg/mL
B3: 117_57E (antibody, V domains shown)
VH: B1 VH with Y57E
VL: B1 VL with T50Y, S51A, Y91H, Y92S, T93N, L94A, F96L
notes: full-length IgG, human kappa

EC50 [14]: 355 pM
B4: 117_101Y (antibody, V domains shown)
VH: B1 VH with F101Y
VL: B1 VL with T50Y, S51A, Y91H, Y92S, T93N, L94A, F96L
notes: full-length IgG, human kappa

EC50 [3]: 5170 pM
EC50 [4]: 940 pM
Kd [8]: 3420 pM
koff [8]: 0.00462 s⁻¹
kon [8]: 1.35e+06 M⁻¹ s⁻¹
B5: A8A (antibody, human IgG1, kappa, N297A, V domains shown)
VH: B1 VH
VL: B1 VL with T50Y, S51A, T52N, Y91H, Y92S, T93N, F96L
notes: Full-length human IgG1-N297A, kappa; also called A8A (IgG1)

EC50 [14]: 929 pM
B6: 117_101S (antibody, V domains shown)
VH: B1 VH with F101S
VL: B1 VL with T50Y, S51A, Y91H, Y92S, T93N, L94A, F96L
notes: full-length IgG, human kappa

EC50 [14]: 1600 pM
B7: 117_101H (antibody, V domains shown)
VH: B1 VH with F101H
VL: B1 VL with T50Y, S51A, Y91H, Y92S, T93N, L94A, F96L
notes: full-length IgG, human kappa
